{"source": "patent CN116744966A", "target": "SARS-CoV-2 spike protein (wild type) on pseudovirus (SARS-CoV-2) (UniProt P0DTC2)", "experiment": "cell-based or functional assay"}
{"substance": "ACE2-Ig (positive control of the pseudovirus neutralisation assay) (Fc fusion)", "values": [{"measurement": "IC50, pseudovirus neutralisation (positive control)", "result": 0.9, "unit": "µg/mL"}]}
